Results taken from publication PMC3510444 (Molecular Cell, 2012).
Where no end group is shown, it is not given here.

B1: FITC-labeled NDP52 CLIR peptide (aa 128-141), I133W (peptide)
peptide: ENEEDWLVVTTQGE
modifications: also: FITC label (end not given here)
notes: NDP52, human, CLIR region, 14-mer, Ile133 replaced with Trp; also called CLIR^I133W
B2: FITC-labeled NDP52 CLIR peptide (aa 128-141), wild type (peptide)
peptide: ENEEDILVVTTQGE
modifications: also: FITC label (end not given here)
notes: NDP52, human, CLIR region, 14-mer; also called CLIR^WT

Target: T1, LC3A, purified, for fluorescence anisotropy (human, UniProt Q9H492 1-121)
T1 construct: LC3A, human ATG8 ortholog; Construct limits and whether the tag was removed may stand in the Supplemental Experimental Procedures; source: E. coli (pETM30 vectors for biochemical experiments), purified
Assay: fluorescence polarisation; fluorescence anisotropy, equilibrium; purified ATG8 orthologs serially diluted and mixed with equal volumes of 100 nM FITC-labeled NDP52 peptides; PheraStar plate reader
Conditions: both partners purified

Binder	Kd
B1	0.29 µM
B2	15.1 µM
